Measured values: patent US20220220224A1 (Hoffmann-La Roche, published 2022)

Legend:
[1] = target: T1, recombinant biotinylated monomeric Fc fusion of human Folate Receptor 3 (hu FolR3 ECD-AcTev-Fcknob-Avi tag … (human, UniProt P0DOX5 223-449 = IgG part, biotin on the C-terminal Avi tag)); assay: SPR Biacore, single injection on immobilized antigen-Fc
T1 construct: also called FolR3-Fc
How it was run: (§1)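 Biacore T200 at 25 °C in HBS-EP (HEPES pH 7.4). Biotinylated FolR-Fc fusions captured on SA chip at about 300-400 RU. IgGs injected once at 500 nM for 60 s to assess cross-reactivity and specificity.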

[2] = target: T2, recombinant biotinylated monomeric Fc fusion of human Folate Receptor 2 (hu FolR2 ECD-AcTev-Fcknob-Avi tag … (human, UniProt P0DOX5 223-449 = IgG part, biotin on the C-terminal Avi tag)); assay: as above
T2 construct: also called FolR2-Fc
How it was run: as §1

[3] = target: T3, recombinant biotinylated monomeric Fc fusion of murine Folate Receptor 1 (mu FolR1 ECD-AcTev-Fcknob-Avitag … (murine, UniProt P0DOX5 223-449 = IgG part, biotin on the C-terminal Avi tag)); assay: SPR Biacore, avidity (bivalent, apparent KD), antigen-Fc on SA chip
T3 construct: also called muFolR1-Fc; murine FolR1
Description: (§2) The avidity of the interaction between the anti-FolR1 IgG or T cell bispecifics and the recombinant folate receptors was determined as described below (Table 25).
(§3) Recombinant biotinylated monomeric Fc fusions of human, cynomolgus and murine Folate Receptor 1 (FolR1-Fc) were directly coupled on a SA chip using the standard coupling instruction (Biacore, GE Healthcare). The immobilization level was about 300-400 RU. The anti-FolR1 IgGs or T cell bispecifics were passed at a concentration range from 3.7 to 900 nM with a flow of 30 μL/minutes through the flow cells over 180 seconds. The dissociation was monitored for 240 or 600 seconds. The chip surface was regenerated after every cycle using a double injection of 30 sec 10 mM Glycine-HCl pH 2. Bulk refractive index differences were corrected for by subtracting the response obtained on reference flow cell immobilized with recombinant biotinylated murine CD134 Fc fusion. The binding curves resulting from the bivalent binding of the IgG or T cell bispecifics were approximated to a 1:1 Langmuir binding (even though it is a 1:2 binding) and fitted with that model to get an apparent KD representing the avidity of the bivalent binding. The apparent avidity constants for the interactions were derived from the rate constants of the fitting using the Bia Evaluation software (GE Healthcare). For the 1+1 T cell bispecifics format the interaction is a real 1:1 and the KD represents affinity since there is only one FolR1 binder in this construct.

[4] = target: T4, recombinant biotinylated monomeric Fc fusion of human Folate Receptor 1 (huFolR1 ECD-AcTev-Fcknob-Avi tag … (human, UniProt P0DOX5 223-449 = IgG part, biotin on the C-terminal Avi tag)); assay: as above
T4 construct: also called huFolR1-Fc; human FolR1-Fc
Description: as §2, §3

[5] = target: T5, recombinant biotinylated monomeric Fc fusion of cynomolgus Folate Receptor 1 (cy FolR1 ECD-AcTev-Fcknob-Avi … (cynomolgus, UniProt P0DOX5 223-449 = IgG part, biotin on the C-terminal Avi tag)); assay: as above
T5 construct: also called cyFolR1-Fc; cyno FolR1
Description: as §2, §3

[6] = target: T3, recombinant biotinylated monomeric Fc …; assay: SPR Biacore, affinity (monovalent), antibody captured via anti-Fab
Description: (§4) The affinity of the interaction between the anti-FolR1 IgG or T cell bispecifics and the recombinant folate receptors was determined as described below (Table 26).
(§5) For affinity measurement, direct coupling of around 12000 resonance units (RU) of the anti-human Fab specific antibody (Fab capture kit, GE Healthcare) was performed on a CM5 chip at pH 5.0 using the standard amine coupling kit (GE Healthcare). Anti-FolR1 IgG or T cell bispecifics were captured at 20 nM with a flow rate of 10 μl/min for 40 sec, the reference flow cell was left without capture. […] The dissociation phase was monitored for 300 s and triggered by switching from the sample solution to HBS-EP. The chip surface was regenerated after every cycle using a double injection of 60 sec 10 mM Glycine-HCl pH 1.5. Bulk refractive index differences were corrected for by subtracting the response obtained on the reference flow cell 1. The affinity constants for the interactions were derived from the rate constants by fitting to a 1:1 Langmuir binding using the Bia Evaluation software (GE Healthcare).

[7] = target: T4, recombinant biotinylated monomeric Fc …; assay: as above
Description: as §4, §5

[8] = target: T5, recombinant biotinylated monomeric Fc …; assay: as above
Description: as §4, §5

B1: 36F2 IgG (antibody, V domains shown)
VH: QVQLVQSGAEVKKPGASVKVSCKASGYTFTSYYMHWVRQAPGQGLEWMGIINPSGGSTSYAQKFQGRVTMTHDTSTSTVYMELSSLRSEDTAVYYCARSFFTGFHLDYWGQGTLVTVSS
VL: EIVLTQSPGTLSLSPGERATLSCRASQSVSSSYLAWYQQKPGQAPRLLIYGASSRATGIPDRFSGSGSGTDFTLTISRLEPEDFAVYYCQQYTNEHYYTFGQGTKVEIK
[1]
  binding result: no binding (tested: 500 nM)
[2]
  binding result: no binding (tested: 500 nM)
[3]
  Kd: 0.002 µM
  koff: 0.000823 s⁻¹
  kon: 428000 M⁻¹ s⁻¹
[4]
  Kd: 0.006 µM
  koff: 0.013 s⁻¹
  kon: 2.07e+06 M⁻¹ s⁻¹
[5]
  Kd: 0.006 µM
  koff: 0.0175 s⁻¹
  kon: 2.78e+06 M⁻¹ s⁻¹
[6]
  Kd: 0.21 µM
  koff: 0.0178 s⁻¹
  kon: 83200 M⁻¹ s⁻¹
[7]
  Kd: 0.73 µM
  koff: 0.0665 s⁻¹
  kon: 91000 M⁻¹ s⁻¹
[8]
  Kd: 0.57 µM
  koff: 0.0578 s⁻¹
  kon: 102000 M⁻¹ s⁻¹
